For one substance, residence of photoactivatable-mCherry PKAc results are on record in paper PMC10881042.

Test [1] concerns the target PKA type II regulatory subunit RIIα, in H295R adrenal cells (UniProt P13861).
Test [2] concerns the target PKA type I regulatory subunit RIα, in H295R adrenal cells (human (endogenous in H295R)) (UniProt P10644).
UniProt P10644, sequence (P10644 whole entry, stated change not applied): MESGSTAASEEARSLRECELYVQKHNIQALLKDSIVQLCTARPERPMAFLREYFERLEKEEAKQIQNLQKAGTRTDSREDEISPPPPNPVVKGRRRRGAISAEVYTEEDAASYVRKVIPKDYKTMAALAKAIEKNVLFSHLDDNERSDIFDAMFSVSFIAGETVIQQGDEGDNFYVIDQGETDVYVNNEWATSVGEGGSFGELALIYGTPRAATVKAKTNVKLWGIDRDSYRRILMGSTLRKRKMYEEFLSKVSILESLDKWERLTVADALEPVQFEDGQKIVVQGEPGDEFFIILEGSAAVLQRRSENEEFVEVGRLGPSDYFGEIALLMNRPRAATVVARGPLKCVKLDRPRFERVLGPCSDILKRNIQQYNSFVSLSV

UniProt P13861, sequence (P13861 whole entry, stated change not applied): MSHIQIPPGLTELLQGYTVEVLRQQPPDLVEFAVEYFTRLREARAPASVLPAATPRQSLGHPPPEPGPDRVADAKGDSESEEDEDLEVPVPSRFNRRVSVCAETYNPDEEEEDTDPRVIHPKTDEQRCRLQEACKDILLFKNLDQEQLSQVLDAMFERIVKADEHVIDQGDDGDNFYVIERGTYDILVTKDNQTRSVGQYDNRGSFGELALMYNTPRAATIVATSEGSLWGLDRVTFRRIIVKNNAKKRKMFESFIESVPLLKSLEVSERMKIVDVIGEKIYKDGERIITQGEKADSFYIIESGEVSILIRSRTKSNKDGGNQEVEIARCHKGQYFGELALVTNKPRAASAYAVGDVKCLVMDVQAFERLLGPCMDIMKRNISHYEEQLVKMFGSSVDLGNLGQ

In test [1], “V5-tagged PKAc-W196R, in H295R adrenal cells (enzyme)” yielded a residence of photoactivatable-mCherry PKAc at the site of photoactivation after 12.5 s in H295R cells with AKAP79-YFP and RIIα-iRFP of 30%. In test [2], this substance had a residence of photoactivatable-mCherry PKAc at the site of photoactivation after 12.5 s in H295R cells with smAKAP-GFP and RIα-iRFP of 40%.
